Laboratory results taken from the nanobody polyreactivity screen of Harvey et al. (2022).

Experiment: yeast display, Sf9 membrane polyspecificity reagent, FACS + sequencing; frameworks hold sequencing errors
How it was run: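 Nanobodies from a synthetic yeast display library (Saccharomyces cerevisiae BJ5465), induced 36–48 hours with galactose, were stained 1 hour at 4 °C with 10% biotinylated, detergent-solubilized Sf9 membrane reagent, enriched on streptavidin microbeads, then FACS-sorted. Anti-HA (expression) and streptavidin (reagent binding) fluorescence set low and high (top ~1%) gates. Polyreactivity labels come from the gate of origin. Genes were colony-PCR amplified, MiSeq 2 × 250 sequenced and filtered by CDR length.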

Sequence | polyreactivity (PSR sort gate)
QVQLVESGGGLVQAGGSLRLSCAASGFIFGNYAMGWYRPAPGKERELVATITRRGGRTYYADSVKGRFTISRDNAKNTVYLQMNSLKPEDTAVYYCNAGAYYLLSGQDDMDYWGQGTQVTVSS | high polyreactivity
QVQLVESGGGLVQAGGSLRLSCAASGSIFFPYAMGWYRQAPGKERELVAAIDTSSGSTYSADSVKGRFTISRDNAKNTVYLQMNSLKPEDTAVYYCAREALQYPGLKYNYWGQGTQVTVSS | low polyreactivity
QVQLVESGGGLVQAGGRLRLSCVASGSIFSGNAMGWYRQARGKERELVAAITRSGTSTYYADSVKGRFTISRDNAKNTVYLQMNSVKPEDTAVYYCATQYGRQRRAMYYWGQGTQVTVTS | high polyreactivity
QVQLVESGGGLVQAGGSLRLSCAASGITFYEYAMGWYRQAPGKEREFVAAIDDGDSSTYYADSVKGRFTISRDNGKNTVYLQMNTLKPEDSAVFDCNADPYYDYSLNWGDYWGQGTQVTVSS | low polyreactivity
QVQLVESGGGLDQAGGSLRLSCAASGITFQWYTMGWYIQAPGKERDLVATISSGGSTNYADSVKGRFTISRDNAKNTVYLQMKSLKPEDTAVYYCAKQPTVYHHYGLGYWGQGTQVTVSS | low polyreactivity
QVQLVESGGGLVQAGGSLRLSCAASGRTFVPNTMGWYRQAPGKERELVAAIRWSVGSTYYADSVKGRFTISRDNAKNTVYLQMNSLKPEDTAVYYCAAYYSRSYLRYGMDYWGQGTQVTVSS | high polyreactivity
QVQLVESGGGLVHAGGSLRLSCAASGRTFNGNAMGWYRQAPGKERELVAVITGSGGSTYYADSVKGRYTISRDNAKNTVYLQMNSLKPEDTAVYYCNKKVQRRSWYDYWGQGTQVTVSS | low polyreactivity
QVQLVESGGGLVQAGGSLRLSCAASGRIFSYYTMGWYRQAPGKEREFVAAISWNDGSTYYADSVKGRFTISRDNSKNTVYLQMNSLKPEDTAVYYCAAEYHYFWWRMDYWGQGTQVTVSS | high polyreactivity
QVQLVESGGGLVQAGGSLRLSCAASGLTFDYYAMGWYRQAPGKERELVAAITSSGGRTYYADSVKGRFTISRDNPNKTVYLQMNSLKPEDTAVYYCAADPYSVYGGDYWGQGTQVTVSS | low polyreactivity
QVQLVESCGGLVQAGGSLRLSCAASGSTFRTYAMGWYRQAPGKERELVASIDSTGSTNYADSVKGRFTISSDNAKNSVYLQMNSLKPEDTAVYDCAAETYSYPPFYAYDYWGQGTQVTVSS | low polyreactivity
QVQLVESGGGLVQAGGSLRLSCAASGYTFGYYAMGWYRQAPGKERELVAAISWRGARTNYADSVKGRFTISRDNAKNTVYLQMNSLKPEDTAVYYCAAGYYYGYPPRDYWGQGTQVTVSS | high polyreactivity
QVQLVESGGGLVQAGGSLRLSCAASGNTFRWYDMGGYRQAPGKERELVAAITSSGSTTYYADSVKGRFTISRDNAKNTVYLQMNSLKPEDTAVYYCAAEDHYEGYGGYYWGHGTQVTVSS | low polyreactivity
QVQLVESGGRLVQAGGSLRLSCAASGRIFARYAMGWYRQAPGKERELLASINSGGNTYYADSVKGRFTISRDNAKNTVYLQMNSLKPEDTAVYYCAAVVGRRPSSRSRFEYDYWGQGTQVTVSS | low polyreactivity
QVQLVESGGGLFQAGGSLRLSCAASGFIFLVNAMGWYRPAPGKERELVAAISKSTGGTYYADSVKGRFTISRDNAKNTVYLQMYSLKPEDTAVYSCAADEVYPVQRDMDYWGQGTQETVSS | low polyreactivity
QDQLVESGGGLVQAGGSLRLSCAASGSTFAGNGMGWYRQAPGKERELVAGIDVTGGSTYYADSVKGRFTISRDNAKNTVYLQMNSLKPEDTAVYFCNARYVYHSSFAGFDYWGQGTQVTVSS | low polyreactivity
QVQLVESGGGLVQAGGSLRLSCAASGSIFGYNVMGWYRQAPGKERELVAAINYSGGRTYYADSVKGRFTISRDNAKNTVYLEMNSLKPEDTAVYYCAAVPLSRYTVFNYDYWGQGTQVTVSS | high polyreactivity
QVQLVESGGGLVQAGGSLRLSCAASGSIFKYYAMGWYRQAPGKERELVAAIDWSGGNTYADSVKGRFTISRDNAKNTVYLQMNSLKPEDTAVYYCAADAFAVYRITSYNGSDSWGQGTQVTVSS | high polyreactivity
QVQLVESGGGLVQAGGSLRLSCAASGRTFWLYAMGWYRQAPGKARELVASITRDGTSTYYADSVKGRFTISRDNPKNTVYLQMNSLKPEDTAVYYCAAVYHSKSRTIYWGQGTQVTVSS | high polyreactivity
QVQLVESGGGLVQAGGSLRLSCAASGFILGRYAMGWYRQAPGKERELVAAISIGGRTNYADSVKGRFTISRDNAKNTVYLQMNSLKPEDTEVYYCAVDRYVTYSLSNSLYEYWGQGTQVTVSS | low polyreactivity
QVQLVESGGGLVQAGGSLRLSCAASGSIFSSNAMGWYRQAPGKERELVAAISSSGGSTYYADSVKGRFTISRDNAKNTVYLQKNSLKPEDTAVYYCATGKQVYGHYYWGQGTQVTVSS | low polyreactivity

Sequence | polyreactivity (PSR sort gate)
QVQLVESGGGLVQAGGSLRLSCAASGSTINQYPLGWYRQATGKERELVAAITRRGGSTYYADSVKGRFTISRDNAKNTVYLQMNSLKPEDTAVYYCAAAYPYTTVSYDYWGQGTQVTVSS | high polyreactivity
QVQLVESGGGLVQAGGSLRLSCAASGLTLGSYTMGWYRQAPGKERELVAAIRKRGSSSYYADSVKGRFTISRDNAKNTVYLQMISQKPEDTAVYYCATDVASYWYRFFWRYGYWGQGTQVTVSS | low polyreactivity
QVQLVESGGGLVQAGGSLRLSCAASGNTFKVYVMGWYRQAPGKERELVAAISRRGGNTYYADSVKGRFTISRDNAKNTVYLQMNSLKPEDTAVYYCAAYRAPYYEYDYWGQGTQVTVSS | high polyreactivity
QVQLVESGGGLVQAGGSLRLSCAASGFTFGYYAMGWYRQAPGKERELVAAISSSGGSTYYADSVKGRFTISRDNAKNTVYLQMNSLKQEDTAVYYCSTGFLQNYYKYSSSFRFYYWGQGTQVTVSS | high polyreactivity
QVQLVESGGGLVQAGGSLRLSCAASGSIFEYNAMGWYRQAPWKERELVAAITSGGSTNYADSVKGRFTISRDNAKNTVYLQMNSLKPEDTAVYYCAKKYRSVPKYLYRITKYNYWGQGTQVTVSS | low polyreactivity
QVQLVESGGGLVQAGGSLRLSCAASGFIYHTNAMGWYRPAPGKERELVAAISDSADITHYADSVKGRFTISRDYAKNTVYLQMNSLKPEDTAVYYCNTTGDPPAYDFAFEDWGQGTQVTVSS | low polyreactivity
QVQLVESGGGLVQAGGSLRLSCAASGRILVYNTMGWSRQAPGKERELVAGIRRGGSTDYADSVKGRFTISRDNAKNTVYLQMNSLNAEDTAVYYCNARYSTGYTKLGYWGQGTQVTVSS | low polyreactivity
QVQLVESGGGLVQAGGSLRLSCAASGSIFRWNAMGWYRQAPGKERELVAAITYSGGTTYYADSVKGRFTISRDNAKNTVYLQMNSLKPEDTAVYYCAATYYDYYRLYHLGYWGQGTQVTVSS | high polyreactivity
QVQLVESGGGLVQAGGSLRLSCAASGRIFRIYTMGWYRQAPGKERELVAAITKSGGSTSYADSVKGRFTISRDNAKNTVYLQMNILKPEDTAVYYCNAKGWTRPPGYDYWGQGTQVTVSS | high polyreactivity
QVQLVESGGGLVQAGGSLRLSCAASGRIFTRYAMGWYRQAPGTERELVAVITRSGGSTYYADSVKGRFTISRDNAKNTVYLQMNSLKPEDTAVYYCAAKYYGEMYYWGQGTQVTVSS | low polyreactivity
QVQLVESGGGLVQAGGSLRLSCAASGFIFGHYAMGWYRQAPGKERELVATISSGGSTKYADSVKGRFTISRDNAKNTVYLQMNSLKPEDTAVYYCAKKLWYLYHHYDYWGQGTQVTVSS | low polyreactivity
QVQLVESGGGFVQAGGSLRLSCAASGRTFPRYAMGWYRQAPGKERELVAAITRGGGTNYADSVKGRFTISRDNAKNTVYLQMNSLKPEDTAVYYCNRALLYRGYKFDYWGQGTHVTVSS | high polyreactivity
QVQLVESGGGLVQAGGSLRLSCAASGFIFYDYDMGWYRQAPGKEREFVAAITYSGGSTYYADSVKGRFTISRDNAKNTVYLQMNCLKPEDTAFYYCADVKSRYAEAVDYFYWGQGTHVTVSS | low polyreactivity
QVQLVESGGGLVQAGGSLRLSCDASGRTFYVYAMGWYRQAPGKERELVAAISSSGGSTYYADSVKGRFTISRDNAKNTVYLQMNSLKPEDTAVYYCAVVTPRYYGDTKYDYWGQGTQVTVSS | high polyreactivity
QVQLVESGGGLVQAGGSLRLSCAASGNTLIVNAMGWYRQAPGKERELVAAITRDGRTNYADSVKGRFTISRDNAKNTFYLQMNSLKPEDTAVYYCNALSADWFPEEDYWGQGTQVTVSS | low polyreactivity
QVQLVESGGGLVHAGGSLRLSCAASGFIFWRYAMGWYRQAPGKERELVATITSSGGTTHYADSVKGRFTISRDNAKNTVYLQMNSLKPEDTAVFYCATRNGVGSLFYSRNYWGQGTQVSVSS | high polyreactivity
QGQLVESGGGLVQAGGSLRLSCDASGRIFRKYDMGWYRQAPGKERELVAAISGTGITYYADSVKGRFTISRDNANNTVYLQMNSLKPEDTAVYYCARGSKPRALSWADPSATSIYDYWGQGTQVTVSS | low polyreactivity
QVQLVESGGGLVQAGGSLRLSCAASGYIFGVYTMGWYRQAPGKERELVAGISSGSSTYYADSVKGRFTISRDNAKNTVYLQMNSLKPEDTAVYYCAARERSRTYTSRKQVDYGYGYWGQGTQVTVSS | low polyreactivity
QVQLVESGRGLVLAGGSLRLSCAASGRIFRVNAMGWYRQAPGKERELVAAISRGGNTYYADSVKGRFTISRDNEKNTVSLQMNSLKPEDTAVYYCAASRSWPRMDYWGQGTQVSVSS | high polyreactivity
QVQLVESGGGLVQAGGSLRLSCAASGLISRINAMGWYRQAPGKERELVAAISSGGSTNYADSVKGRFTISRDNAKNTVYLQMNSLKPEDTAVYYCAAGYIRKYSAFRYNYWGQGTQVTVSS | high polyreactivity
